Measurements from article PMC7616478 (Proteins, 2024).

Columns and labels:
[1] = target: C-Mad2* (closed conformation of full-length human R133A Mad2) (human) (UniProt Q13257); test: 15N-CEST + 15N-CPMG relaxation dispersion NMR
[2] = target: L5I Mad2* (L5I R133A Mad2) (human, UniProt Q13257 1-205, L5I | R133A); test: NMR titration
[3] = target: C-Mad2* (closed conformation of full-length human R133A Mad2) (human, UniProt Q13257 1-205, R133A); test: NMR titration
C-Mad2* (closed conformation of full-length human R133A Mad2), sequence (Q13257 whole entry R133A): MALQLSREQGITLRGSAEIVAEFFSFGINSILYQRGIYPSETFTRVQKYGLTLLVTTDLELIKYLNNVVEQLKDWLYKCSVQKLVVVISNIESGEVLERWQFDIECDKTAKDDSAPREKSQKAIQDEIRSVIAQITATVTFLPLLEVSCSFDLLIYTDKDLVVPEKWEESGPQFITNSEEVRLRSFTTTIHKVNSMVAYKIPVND

L5I Mad2* (L5I R133A Mad2), sequence (Q13257 whole entry L5I/R133A): as the sequence (Q13257 whole entry R133A) above, with L5I counted along it

Row | Molecule | Kd [1] [mM] | koff [1] [s⁻¹] | kon [1] [M⁻¹ s⁻¹] | population of the excited state E1 (pE1) at 133 μM [1] [%] | binding result [2] | binding result [3]
1 | C-Mad2* (closed conformation of full-length human R133A Mad2) (from UniProt Q13257 1-205) (natural protein) | 3.4 | 152 | 44000 | 3.5 | – | –
2 | SWYSYPPPQRAV [Mad2-binding peptide 1 (MBP1)] | – | – | – | – | binds | binds
